Measured values: article PMC4525183, “Snf1/AMP-activated protein kinase activates Arf3p to promote invasive yeast growth via a non-canonical GEF domain” (Nature Communications, 2015)

T1: GST-Snf1-C (a.a. 311–633) (S. cerevisiae, UniProt P06782 311-633)
T1 construct: Snf1p, S. cerevisiae, C-terminal regulatory domain, a.a; 311–633; Vector pGEX4T-1; also called C-terminal regulatory domain of Snf1p; source: E. coli BL21 (DE3), purified (glutathione-Sepharose 4B)
T1 sequence (looked up): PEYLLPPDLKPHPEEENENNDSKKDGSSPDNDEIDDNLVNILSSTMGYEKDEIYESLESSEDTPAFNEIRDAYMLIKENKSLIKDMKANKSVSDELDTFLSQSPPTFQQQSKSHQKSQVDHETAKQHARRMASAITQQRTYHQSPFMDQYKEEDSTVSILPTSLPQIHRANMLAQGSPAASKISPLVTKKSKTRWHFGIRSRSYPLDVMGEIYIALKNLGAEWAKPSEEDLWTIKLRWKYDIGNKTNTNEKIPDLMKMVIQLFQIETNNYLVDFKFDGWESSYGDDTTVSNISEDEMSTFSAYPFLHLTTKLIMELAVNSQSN

B1: His-Arf3^T31N (natural protein, S. cerevisiae, UniProt P40994 1-183, looked up)
chain: MGNSISKVLGKLFGSKEMKILMLGLDKAGKNTILYKLKLNKIKTSTPTVGFNVETVTYKNVKFNMWDVGGQQRLRPLWRHYFPATTALIFVIDSSARNRMEEAKEELYSIIGEKEMENVVLLVWANKQDLKDAMKPQEVSDFLELEKNLKNQPWCVIGSNALSGQGLVEGLSWISNNTNVPKK
notes: Arf3p, S. cerevisiae; T31N; plasmid pET32a-ARF3 (T31N); pET32a usually adds thioredoxin, His and S tags before the insert

Experiments:
His-Arf3^T31N = target: B1; assay: pull-down; GST fusions on glutathione-Sepharose 4B beads, His-tagged protein in solution (His-Arf3 loaded with GDP or GTPγS); 50 mM Tris-HCl pH 7.5, 150 mM NaCl, 1% Triton X-100, 1 mM DTT, 10 mM MgCl2; 1 h, 4 °C; anti-His blot; conditions: both partners purified
[1] = target: T1, GST-Snf1-C (a.a. 311–633); assay: as above; conditions: both partners purified

Row | binding result (His-Arf3^T31N) | binding result [1] | Binder
1 | binds | – | GST-Snf1-C1 (a.a. 392–518) (domain or fragment, S. cerevisiae, UniProt P06782 392-518, looked up, Snf1p, S. cerevisiae, a.a; Vector pGEX4T-1; source: E. coli BL21 (DE3), purified (glutathione-Sepharose 4B)) LIKDMKANKSVSDELDTFLSQSPPTFQQQSKSHQKSQVDHETAKQHARRMASAITQQRTYHQSPFMDQYKEEDSTVSILPTSLPQIHRANMLAQGSPAASKISPLVTKKSKTRWHFGIRSRSYPLDV
2 | – | binds | B1
